Experimental data taken from patent US20140179593A1 (published 2014).
Read-outs that look alike come from different tables or passages of the source. Values belong to the binder of their own block, whether it stands above or below them. Starred links: 1 amine or outer side, 2 acyl side, 3 side chain; linkers in the order of their positions; H or OH if unused. Positions of bridges follow the written chain, without caps; N, C: chain ends. Non-standard residues stand in square brackets, D forms with d. αMeNva(5-ylidene) = C[C@@](CCC=[*:3])(N[*:1])C(=O)[*:2]; S8 = C=CCCCCCC[C@](C)(N)C(=O)O; SeMet = C[Se]CC[C@H](N)C(=O)O; S5 = C=CCCC[C@](C)(N)C(=O)O; Nle = CCCC[C@H](N)C(=O)O

Tests used:
[1] = biological target: T1, hDcn1^P (potentiating neddylation / PONY domain of human Dcn1, DCUN1D1) (Homo sapiens, UniProt Q96GG9 62-259); test: ITC, two-site fit, first value
T1 construct: also called DCUN1D1^P; SCCRO PONY domain
T1 sequence (Q96GG9 62-259): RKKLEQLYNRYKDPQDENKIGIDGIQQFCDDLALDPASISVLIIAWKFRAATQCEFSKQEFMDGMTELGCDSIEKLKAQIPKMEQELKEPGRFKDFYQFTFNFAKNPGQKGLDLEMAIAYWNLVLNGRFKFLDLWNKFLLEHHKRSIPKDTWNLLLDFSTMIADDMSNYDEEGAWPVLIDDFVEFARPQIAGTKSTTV
Protocol: (§1) Protein samples were buffer matched by desalting over a NAP-5 column (GE Healthcare) into 50 mM Hepes, 125 mM NaCl, 1 mM BME, pH 7.0 (ITC buffer). Peptides were dissolved by weight to a final concentration of 10 mM in ITC buffer and diluted further in ITC buffer as required for the experiments. […] The peptide ligands (4 mM) were constantly injected (1.5 μl). The interval time between each injection was 3 minutes and the duration of each injection was 3 seconds. […] Peptide ligands (250 μM) were constantly injected (2.5 μl). The interval time between each injection was three minutes and the duration of each injection was 5 seconds. […] The interval time between each injection was 3 minutes and the duration of each injection was 5 seconds. Obtained spectra were evaluated using Origin (V 7.0) to determine heats of binding and Kd values.

[2] = biological target: T1, hDcn1^P (potentiating neddylation / …); test: ITC, two-site fit, second value
Protocol: as §1

[3] = biological target: hDcn1^P (PONY domain of human Dcn1 / DCUN1D1 / SCCRO, residues 62 to 259) (Homo sapiens) (UniProt Q96GG9); test: ITC, peptide titrated into hDcn1^P
Sequence of hDcn1^P (PONY domain of human Dcn1 / DCUN1D1 / SCCRO, residues 62 to 259) (Homo sapiens) (Q96GG9 62-259): as above

[4] = biological target: T2, hE1 for Nedd8 (APPBP1-UBA3, NAE1-UBA3) (Homo sapiens, UniProt Q13564 18-534; Q8TBC4 22-463, limits assumed); test: ITC, peptide titrated into hE1
T2 construct: Heterodimeric E1 expressed in E. coli as described in earlier publications
T2 sequence 1: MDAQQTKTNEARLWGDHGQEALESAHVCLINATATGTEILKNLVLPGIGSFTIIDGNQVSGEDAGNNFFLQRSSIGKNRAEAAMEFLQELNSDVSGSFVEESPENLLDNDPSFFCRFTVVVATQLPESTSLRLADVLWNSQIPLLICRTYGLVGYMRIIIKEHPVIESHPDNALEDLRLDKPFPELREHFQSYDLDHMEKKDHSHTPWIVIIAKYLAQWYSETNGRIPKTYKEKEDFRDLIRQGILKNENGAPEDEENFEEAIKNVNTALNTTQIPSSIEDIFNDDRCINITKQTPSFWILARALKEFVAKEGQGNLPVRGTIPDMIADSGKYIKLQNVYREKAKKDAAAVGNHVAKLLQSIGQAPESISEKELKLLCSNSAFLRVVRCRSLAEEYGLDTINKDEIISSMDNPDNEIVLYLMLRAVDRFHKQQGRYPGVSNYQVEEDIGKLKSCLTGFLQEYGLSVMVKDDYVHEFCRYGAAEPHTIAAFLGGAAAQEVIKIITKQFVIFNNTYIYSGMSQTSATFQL
T2 sequence 2: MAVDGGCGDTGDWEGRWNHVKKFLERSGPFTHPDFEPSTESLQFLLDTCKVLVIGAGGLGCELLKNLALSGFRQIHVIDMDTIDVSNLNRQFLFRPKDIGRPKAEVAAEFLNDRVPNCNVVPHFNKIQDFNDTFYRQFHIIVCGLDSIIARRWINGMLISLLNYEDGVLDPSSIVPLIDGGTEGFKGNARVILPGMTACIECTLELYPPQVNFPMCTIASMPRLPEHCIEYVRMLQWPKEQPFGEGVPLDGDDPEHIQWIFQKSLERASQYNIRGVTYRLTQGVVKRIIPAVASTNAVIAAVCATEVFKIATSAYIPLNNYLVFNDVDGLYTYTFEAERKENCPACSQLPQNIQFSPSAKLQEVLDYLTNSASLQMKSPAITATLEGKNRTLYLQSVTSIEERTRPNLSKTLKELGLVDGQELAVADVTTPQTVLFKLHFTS
Protocol: (§2) To gain insights into mechanistic roles of Ubc12 N-terminal acetylation, isothermal titration calorimetry (ITC) was used to quantify interactions with peptides corresponding to the N-termini of yeast or human Ubc12.
as §1

[5] = biological target: T2, hE1 for Nedd8 (APPBP1-UBA3, NAE1-UBA3); test: ITC, peptide titrated into hE1; remark: listed apart in the source
Protocol: (§3) Specifically, Phe5 and Gln9 were replaced with (S)-2-(4′-pentenyl) alanine and these side-chains were covalently linked to test the effect of “stapling” an acetylated Ubc12 peptide into a helix (Bird et al. (2008) Methods Enzymol 446:369-386).
as §1

[6] = biological target: T3, hDcn1^P (PONY domain of human Dcn1 / DCUN1D1 / SCCRO, residues 62 to 259) (Homo sapiens, UniProt Q96GG9 62-259); test: ITC, peptide titrated into hDcn1^P
T3 construct: NEDD8 co-E3; Expressed as a GST fusion in E. coli; GST was removed with TEV protease; also called DCUN1D1^P
T3 sequence (Q96GG9 62-259): as the sequence (Q96GG9 62-259) above
Protocol: as §3, §1

[7] = biological target: T4, hDcn3^P (PONY domain of human DCUN1D3) (Homo sapiens, UniProt Q8IWE4 86-304); test: ITC, peptide titrated into Dcn PONY domain
T4 sequence: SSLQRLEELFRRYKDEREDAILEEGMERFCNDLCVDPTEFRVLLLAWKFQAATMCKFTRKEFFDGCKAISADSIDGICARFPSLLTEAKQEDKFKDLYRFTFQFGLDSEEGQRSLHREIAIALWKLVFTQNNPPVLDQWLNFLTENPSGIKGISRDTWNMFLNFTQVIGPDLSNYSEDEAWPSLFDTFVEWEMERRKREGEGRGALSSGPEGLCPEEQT
Protocol: as §1

[8] = biological target: T5, hDcn4^P (PONY domain of human DCUN1D4) (Homo sapiens, UniProt Q92564 102-292); test: ITC, peptide titrated into Dcn PONY domain
T5 sequence: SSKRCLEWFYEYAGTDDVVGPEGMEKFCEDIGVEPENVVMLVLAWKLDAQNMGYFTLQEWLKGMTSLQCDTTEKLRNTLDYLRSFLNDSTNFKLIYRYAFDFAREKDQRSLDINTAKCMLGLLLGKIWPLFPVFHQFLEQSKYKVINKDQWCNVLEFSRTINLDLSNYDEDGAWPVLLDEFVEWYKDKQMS
Protocol: as §1

[9] = biological target: T3, hDcn1^P (PONY domain of human Dcn1 / …); test: ITC, peptide titrated into hDcn1^P; remark: listed apart in the source
Protocol: as §2, §1

[10] = biological target: yDcn1^P (potentiating neddylation / PONY domain of Saccharomyces cerevisiae Dcn1) (Saccharomyces cerevisiae) (UniProt Q12395); test: ITC, peptide titrated into yDcn1^P
[11] = biological target: T6, yE1 for yNedd8 (Ula1-Uba3) (Saccharomyces cerevisiae, UniProt Q12059 1-462, limits assumed); test: ITC, peptide titrated into yE1
T6 construct: Heterodimeric E1 expressed in E. coli as described in earlier publications
T6 sequence 1: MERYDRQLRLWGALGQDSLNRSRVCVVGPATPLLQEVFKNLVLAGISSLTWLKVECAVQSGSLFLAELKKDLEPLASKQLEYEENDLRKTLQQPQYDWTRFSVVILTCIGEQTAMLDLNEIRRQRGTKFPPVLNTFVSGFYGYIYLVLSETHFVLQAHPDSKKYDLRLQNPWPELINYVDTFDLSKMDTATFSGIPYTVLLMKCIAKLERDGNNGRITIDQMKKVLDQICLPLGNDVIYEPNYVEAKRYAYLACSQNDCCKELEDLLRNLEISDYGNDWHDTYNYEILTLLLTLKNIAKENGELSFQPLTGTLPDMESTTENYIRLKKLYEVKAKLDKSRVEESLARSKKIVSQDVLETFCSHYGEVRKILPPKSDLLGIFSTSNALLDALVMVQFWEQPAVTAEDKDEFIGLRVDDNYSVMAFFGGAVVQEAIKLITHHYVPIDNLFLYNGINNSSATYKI
T6 sequence 2: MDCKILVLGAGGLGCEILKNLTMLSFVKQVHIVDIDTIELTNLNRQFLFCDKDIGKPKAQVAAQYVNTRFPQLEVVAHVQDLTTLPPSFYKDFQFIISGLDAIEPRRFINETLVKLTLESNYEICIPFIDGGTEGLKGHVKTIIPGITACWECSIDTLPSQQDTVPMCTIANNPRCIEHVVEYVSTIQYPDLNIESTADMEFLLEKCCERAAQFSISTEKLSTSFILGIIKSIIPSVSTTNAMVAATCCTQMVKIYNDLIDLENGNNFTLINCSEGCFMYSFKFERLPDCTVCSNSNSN
Protocol: as §2, §1

[12] = biological target: T1, hDcn1^P (potentiating neddylation / …); test: ITC, peptide titrated into Dcn PONY domain
Protocol: as §1

[13] = biological target: T7, hDcn5^P (PONY domain of human DCUN1D5) (Homo sapiens, UniProt Q9BTE7 47-237); test: ITC, peptide titrated into Dcn PONY domain
T7 sequence: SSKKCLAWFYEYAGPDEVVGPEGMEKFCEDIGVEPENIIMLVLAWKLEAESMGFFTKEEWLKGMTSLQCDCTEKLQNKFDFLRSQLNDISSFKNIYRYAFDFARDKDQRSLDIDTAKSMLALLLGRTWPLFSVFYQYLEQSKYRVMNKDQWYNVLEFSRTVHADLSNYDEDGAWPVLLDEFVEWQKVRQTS
Protocol: as §1

Kd [1]: 38 nM | Kd [2]: 37 nM
B1: yUbc12^Ac1-12 (Met) 6, 10 (peptide)
peptide: Ac-MLKLR[S5]LQK[S5]KQ-NH2
modifications: staple 6-10
SMILES: CSCC[C@H](NC(C)=O)C(=O)N[C@@H](CC(C)C)C(=O)N[C@@H](CCCCN)C(=O)N[C@@H](CC(C)C)C(=O)N[C@@H](CCCNC(=N)N)C(=O)N[C@@]1(C)CCCC=CCCC[C@@](C)(C(=O)N[C@@H](CCCCN)C(=O)N[C@@H](CCC(N)=O)C(N)=O)NC(=O)[C@H](CCCCN)NC(=O)[C@H](CCC(N)=O)NC(=O)[C@H](CC(C)C)NC1=O
notes: Stapled synthetic peptide; also called Acetyl-yUbc12^1-12(6:10 Staple)

binding result [5]: no binding | Kd [6]: 150 nM | ΔH [6]: -3.39 kcal/mol | ΔS [6]: 19.3 cal/mol/deg
B3: Acetyl-hUbc12^1-12(5:9Staple) peptide (peptide)
peptide: Ac-MIKL[S5]SLK[S5]QKK-NH2
modifications: staple 5-9
notes: Printed as Ac-MIKLXSLKXQKK-NH2, X = 2-(4-pentenyl)alanine; Phe5 and Gln9 are replaced

Kd [1]: 0.93 nM | Kd [2]: 361 nM
Binder: Ac-[SeMet]IKLF[S5]LKQ[S5]KK-NH2 (staple 6-10, Stapled synthetic peptide) [hUbc12^Ac1-12 (SeMet) 6, 10]

Kd [1]: 1.8 nM | Kd [2]: 187 nM
B4: hUbc12^Ac1-12 (Met) SS 6, 10 (peptide)
peptide: Ac-MIKLF[S5]LKQ[S5]KK-NH2
modifications: staple 6-10
notes: Stapled synthetic peptide; 'SS' is not explained in the text

Kd [1]: 800 nM | Kd [2]: 1200 nM
B6: hUbc12^Ac1-12 (NorLeu) 6, 10 (peptide)
peptide: Ac-[Nle]IKLF[S5]LKQ[S5]KK-NH2
modifications: staple 6-10
SMILES: CCCC[C@H](NC(C)=O)C(=O)N[C@H](C(=O)N[C@@H](CCCCN)C(=O)N[C@@H](CC(C)C)C(=O)N[C@@H](Cc1ccccc1)C(=O)N[C@@]1(C)CCCC=CCCC[C@@](C)(C(=O)N[C@@H](CCCCN)C(=O)N[C@@H](CCCCN)C(N)=O)NC(=O)[C@H](CCC(N)=O)NC(=O)[C@H](CCCCN)NC(=O)[C@H](CC(C)C)NC1=O)[C@@H](C)CC
notes: Stapled synthetic peptide

N (stoichiometry) [10]: 1.16 | ΔH [10]: 3.78 kcal/mol | ΔS [10]: 33.4 cal/mol/deg | Kd [11]: 70 nM | N (stoichiometry) [11]: 1.05 | ΔH [11]: -8.57 kcal/mol | ΔS [11]: 2.65 cal/mol/deg
B8: yUbc12^1-24 peptide (free N-terminus) (peptide)
peptide: H-MLKLRQLQKKKQKENENSSSIQPN-NH2
notes: Synthetic peptide, N-terminal extension of yeast Ubc12

The remaining lines, values behind:

B2: hUbc12^1-26 peptide (free N-terminus) (peptide)
peptide: H-MIKLFSLKQQKKEEESAGGTKGSSKK-NH2
notes: Synthetic peptide, N-terminal extension of human Ubc12 (UBE2M)
N (stoichiometry) [3]: 0.75 | ΔH [3]: 1.26 kcal/mol | ΔS [3]: 22.2 cal/mol/deg | Kd [4]: 585 nM | N (stoichiometry) [4]: 1.29 | ΔH [4]: -8.88 kcal/mol | ΔS [4]: -1.99 cal/mol/deg

Binder: Ac-MIKLFSLKQQKK-NH2 (also called Acetyl-hUbc12^1-12) [hUbc12^Ac1-12]
Kd [7]: 6300 nM | Kd [8]: 13100 nM

B5: Acetyl-hUbc12^1-26 peptide (peptide)
peptide: Ac-MIKLFSLKQQKKEEESAGGTKGSSKK-NH2
notes: Synthetic peptide; also called hUbc12^Ac1-26
Kd [4]: 943 nM | N (stoichiometry) [4]: 1.14 | ΔH [4]: -9.43 kcal/mol | ΔS [4]: -4.79 cal/mol/deg | Kd [9]: 1110 nM | ΔH [9]: -6.11 kcal/mol | ΔS [9]: 5.84 cal/mol/deg

B7: Acetyl-hUbc12^2-26 peptide (peptide)
peptide: Ac-IKLFSLKQQKKEEESAGGTKGSSKK-NH2
notes: Synthetic peptide lacking Met1; also called hUbc12^Ac-2-26
Kd [4]: 390 nM | N (stoichiometry) [4]: 1.04 | ΔH [4]: -8.9 kcal/mol | ΔS [4]: -1.24 cal/mol/deg | ΔH [9]: 1.72 kcal/mol | ΔS [9]: 24.1 cal/mol/deg

B9: Acetyl-hUbc12^1-12 peptide (peptide)
peptide: Ac-MIKLFSLKQQKK-NH2
notes: Synthetic control peptide for the stapled peptide; also called hUbc12^Ac1-12
Kd [5]: 630 nM | ΔH [5]: -11.5 kcal/mol | ΔS [5]: -11 cal/mol/deg | ΔH [6]: -4.99 kcal/mol | ΔS [6]: 8.79 cal/mol/deg

Binder: Ac-MIKLF[αMeNva(5-ylidene)]LKQ[S8]KK-NH2 (staple 6-10) [hUbc12^Ac1-12 (Met) But:Oct 6, 10]
Kd [12]: 120 nM | Kd [7]: 1520 nM | Kd [13]: 781 nM
